{"source": "paper PMC5856820", "about": "“HIV envelope V3 region mimic embodies key features of a broadly neutralizing antibody lineage epitope” (Nature Communications, 2018)", "molecules": {"B1": {"name": "DH270.6 Y48LL: DH270.6 Fab with light-chain Y48 mutated to leucine, as in the UCA (antibody, V domains shown)", "VH": "QVQLVQSGAQMKNPGASVKVSCAPSGYTFTDFYIHWLRQAPGQGLQWMGWMNPQTGRTNTARNFQGRVTMTRDTSIGTAYMELRSLTSDDTAIYYCTTGGWISLYYDSSYYPNFDHWGQGTLLTVSS", "VL": "QSALTQPASVSGSPGQSITISCTGTKYDVGSHDLVSWYQQYPGKVPKLMIYEVNKRPSGVSNRFSGSKSGNTASLTISGLRAEDEADYYCCSFGGSATVVCGGGTKVTVL"}}, "key": {"wild-type 92BR SOSIP.664": {"tested_on": "wild-type 92BR SOSIP.664", "experiment": "Biolayer interferometry (Octet QKe), Fab binding to wild-type 92BR SOSIP.664 Env trimer", "set-up": "species or system HIV-1", "details": "for change in Env interaction/affinity of DH270.6 mutant relative to DH270.6: 92BR SOSIP.664 Env trimer; for change in Env interaction/affinity of DH270.6 mutant relative to DH270.6 / Kd: Table 2; for Kd: Fab 0.2 mg/ml immobilized on anti-Human Fab-CH1 biosensor, trimer 0.1 μM to 0.6 μM, association and dissociation 5 min each, 1000 rpm, duplicate measurements, error SEM, read-out: KD of Fab complexes with wild-type 92BR SOSIP.664", "experimental": "(§1) The SOSIP.664 constructs were cloned into the same pVRC-8400 vector described above for Fabs and any mutations were added by site-directed mutagenesis using manufacturer’s protocols (Stratagene). SOSIP.664 constructs were transfected along with a plasmid encoding the cellular protease furin at a 3:1 Env:furin ratio in 293F cells, adapted to grow in suspension from HEK293T cells (ATCC: CRL-3216). The expression construct of furin was kindly provided by Bing Chen (Boston Children’s Hospital, Boston, MA). The cells were allowed to express soluble SOSIP trimers for 5–7 days, and gp120 monomers were expressed for 5 days. Culture supernatants were collected and cells were removed by centrifugation at 3800 × g for 20 min, and filtered with a 0.2 µm pore size filter. Envs were purified by flowing the supernatant over a lectin (Galanthus nivalis) affinity chromatography column overnight at 4 °C. The lectin column was washed with 1× PBS, followed by a second wash with 1× PBS and 0.5 M NaCl and proteins were eluted with 1× PBS supplemented with 0.5 M methyl-α-D-mannopyranoside and 0.5 M NaCl. The eluate was concentrated and loaded onto a Superdex 200 10/300 GL column (GE Life Sciences) pre-equilibrated in a buffer of 2.5 mM Tris, pH 7.5, 350 mM NaCl and 0.02% sodium azide for BLI and in 10 mM Hepes, pH 8.0, 150 mM NaCl and 0.02% sodium azide for negative stain EM, to separate the trimer-size oligomers from aggregates and gp140 monomers and to separate gp120 monomers from aggregates.\nKinetic measurements of Fab binding to the SOSIP.664 constructs were carried out using the Octet QK^e system (ForteBio); 0.2 mg/ml of each His-tagged Fab was immobilized onto a anti-Human Fab-CH1 biosensor until it reached saturation. The SOSIP.664 trimers were tested at concentrations of 0.1 μM to 0.6 μM. A reference sample of buffer alone was used to account for any signal drift that was observed during the experiment. Association and dissociation were each monitored for 5 min. All experiments were conducted in the Octet instrument with agitation at 1000 rpm.\nAnalyses were performed using nonlinear regression curve fitting using the Graphpad Prism software, version 7."}, "[1]": {"target": "biotinylated Man9-V3 glycopeptide (HIV-1 (strain JRFL))", "experiment": "BLI; BLItz instrument; 0.2 mg/ml biotinylated Man9-V3 immobilised on a streptavidin biosensor; DH270.6 Fab at 40, 15, 5, 1.5 and 0.25 μM; 22 °C; duplicate measurements; kd calculated as the product of ka and KD"}, "[2]": {"target": "DH270.6 Fab T98R (heavy chain) (human)", "experiment": "BLI"}, "[3]": {"target": "DH270.6 Fab Y48L (light chain) (human)", "experiment": "BLI"}, "[4]": {"target": "DH270.6 Fab S103G (heavy chain) (human)", "experiment": "BLI"}, "DH270.6 Fab (human) [5]": {"target": "DH270.6 Fab (human)", "experiment": "BLI; Octet QKe; 0.2 mg/ml His-tagged Fab immobilised on an anti-Human Fab-CH1 biosensor; SOSIP.664 trimers at 0.1 to 0.6 μM; association and dissociation 5 min each; agitation 1000 rpm"}, "DH270.6 Fab (human) [6]": {"target": "DH270.6 Fab (human)", "experiment": "BLI; Octet QKe; 0.2 mg/ml His-tagged Fab immobilised on an anti-Human Fab-CH1 biosensor; SOSIP.664 trimers at 0.1 to 0.6 μM; association and dissociation 5 min each; agitation 1000 rpm", "remark": "listed apart in the source"}, "[7]": {"tested_on": "HIV-1 (autologous and heterologous viruses)", "details": "cited from earlier work", "text": "A synthetic V3-loop glycopeptide (“Man9-V3”), described recently, presents the conformational epitopes needed for the binding of N332 glycan-dependent bnAbs[24], [25]. The peptide design derives from the JRFL mini-V3 gp120 outer domain, used previously for determining a crystal structure with the Fab of bnAb PGT128[9]. The synthetic V3 glycopeptide, which has Man9 glycans (Man9GlcNAc2) at N332 and N301[24] and a 14-residue tip deleted, was used to identify the V3-glycan bnAb DH270.6 (12.9% mutated nucleotides and 71% neutralization breadth[12]) by labeling the B-cell receptor (BCR) on cells fr ... || We describe here a high-resolution crystal structure of “Man9-V3” bound with the single chain variable fragment (scFv) of the N332-glycan dependent bnAb, DH270.6. We have also determined a structure of the Fab of a clonally related member of this lineage, DH270.3 (11.8% mutated nucleotides and 42% neutralization breadth), in complex with a synthetic Man9 glycan. These clonally related antibodies have similar numbers of mutation, but their neutralization breadth and potency differ substantially. Through structural analysis of these two related antibodies, we can account for differences in b ... || Somatic hypermutation is biased by the preference of the activation-induced cytidine deaminase (AID) for certain microsequence motifs (“hot spots”)[28], [29]. […]"}, "[8]": {"tested_on": "R327A mutant of 92BR SOSIP.664 Env", "experiment": "Biolayer interferometry (Octet QKe), DH270.6 Fab binding to R327A mutant 92BR SOSIP.664 Env trimer", "set-up": "species or system HIV-1", "experimental": "as §1, with “The eluate was concentrated and loaded onto a Superdex 200 10/300 GL column (GE Life Sciences) pre-equilibrated in a buffer of 2.5 mM Tris, pH 7.5, 350 mM NaCl and 0.02% sodium azide for BLI and in 10 mM Hepes, pH 8.0, 150 mM NaCl and 0.02% sodium azide for negative stain EM, to separate the trimer-size oligomers from aggregates and gp140 monomers and to separate gp120 monomers from aggregates.” left out\nKinetic measurements of Fab binding to the SOSIP.664 constructs were carried out using the Octet QK^e system (ForteBio); 0.2 mg/ml of each His-tagged Fab was immobilized onto a anti-Human Fab-CH1 biosensor until it reached saturation. […] Association and dissociation were each monitored for 5 min. […]"}, "92BR SOSIP.664 trimer": {"tested_on": "92BR SOSIP.664 trimer", "experiment": "Negative stain EM of DH270.6 Fab-92BR SOSIP.664 complex", "set-up": "species or system HIV-1", "details": "negatively stained EM; 6 molar excess of Fab, 4 °C, 1.5 h", "experimental": "A 2.5 µl aliquot containing ∼0.01 mg/ml of the Fab-92BR SOSIP.664 complex was applied for 30 s onto a carbon-coated 400 Cu mesh grid that had been glow discharged at 5 mA for 2 min, followed by negative staining with 0.7% uranyl formate for 20 s. Samples were imaged using a FEI Tecnai T12 microscope operated at 120 kV and a magnification of ×52,000, yielding a pixel size of 2.13 Å at the specimen plane. Images were acquired with a Gatan 2 K CCD camera using a nominal defocus of 1500 nm at 10° tilt increments, up to 50°. The tilts provided additional particle orientations to improve the image reconstructions.\nParticles were picked semi-automatically using EMAN2 and put into a particle stack. Initial, reference-free, two-dimensional (2D) class averages were calculated, and particles corresponding to complexes (with three Fabs bound) were selected into a substack for determination of an initial model. The initial model was calculated in EMAN2 using threefold symmetry and EMAN2 was used for subsequent refinement using threefold symmetry. In total, 12,941 particles were included in the final reconstruction for the 3D average of 92BR SOSIP.664 trimer complex with DH270.6. The resolution of the final model was estimated using a Fourier Shell Correlation (FSC) cut-off of 0.5. […]"}, "DH270.6 Fab (human) [9]": {"target": "DH270.6 Fab (human)", "experiment": "BLI"}}}
{"molecule": "DH270.6 T98RH: DH270.6 Fab with heavy-chain T98 reverted to Arg", "values": [{"measurement": "binding with 92BR SOSIP.664 Env trimer", "setting": "wild-type 92BR SOSIP.664; reversion mutant of DH270.6, Fig. 4b", "value": "only negligible residual binding"}]}
{"molecule": "DH270.6 Fab", "values": [{"measurement": "Kd", "setting": "[1]", "value": 7, "unit": "µM"}]}
{"molecule": "92BR SOSIP.664 Env trimer, wild type (complex)", "values": [{"measurement": "Kd", "setting": "[2]", "value": 0.046, "unit": "µM"}, {"measurement": "Kd", "setting": "[3]", "value": 0.044, "unit": "µM"}, {"measurement": "Kd", "setting": "[4]", "value": 0.019, "unit": "µM"}, {"measurement": "Kd", "setting": "DH270.6 Fab (human) [5]", "value": 0.00276, "unit": "µM"}, {"measurement": "Kd", "setting": "DH270.6 Fab (human) [6]", "value": 0.011, "unit": "µM"}]}
{"molecule": "DH270.6 S103GH: DH270.6 Fab with heavy-chain S103G mutation", "values": [{"measurement": "change in Env interaction/affinity of DH270.6 mutant relative to DH270.6", "setting": "wild-type 92BR SOSIP.664; Fig. 4b", "value": "weakens the Env interaction twofold"}, {"measurement": "Kd", "setting": "wild-type 92BR SOSIP.664", "value": "0.019 ± 0.001", "unit": "µM"}]}
{"molecule": "DH270.6: V3-glycan broadly neutralizing antibody of DH270 lineage from HIV-1 infected donor CH848", "values": [{"measurement": "Kd", "setting": "wild-type 92BR SOSIP.664", "value": "0.011 ± 0.001", "unit": "µM"}, {"measurement": "neutralization breadth", "setting": "[7]", "value": 71, "unit": "%"}, {"measurement": "affinity of Env R327A mutant for DH270.6 relative to wild-type", "setting": "[8]; Fig. 4a, compared with wild-type counterpart", "value": "only a slightly lower affinity"}, {"measurement": "Kd", "setting": "[8]; read-out: KD, R327A mutant 92BR SOSIP.664 Env tested with DH270.6 Fab, Fig. 4a legend, Fab immobilized on anti-Human Fab-CH1 biosensor, trimer 0.1 μM to 0.6 μM", "value": 0.00764, "unit": "µM"}, {"measurement": "DH270.6 Fabs bound per trimer", "setting": "92BR SOSIP.664 trimer", "value": "three"}]}
{"molecule": "92BR SOSIP.664 Env trimer, R327A mutant (complex)", "values": [{"measurement": "Kd", "setting": "DH270.6 Fab (human) [9]", "value": 0.00764, "unit": "µM"}]}
{"molecule": "B1", "values": [{"measurement": "change in Env interaction/affinity of DH270.6 mutant relative to DH270.6", "setting": "wild-type 92BR SOSIP.664; Fig. 4b", "value": "fourfold lower affinity"}, {"measurement": "Kd", "setting": "wild-type 92BR SOSIP.664", "value": "0.044 ± 0.002", "unit": "µM"}]}
